# *1 amine or outer side, *2 acyl side, *3 side chain or, on linkers, in order; H or OH if unused. Where no end group is shown, it is not given here. [ ]: non-standard residue; d: D form. Cysteamide = C(CS[*:3])N[*:1]
# What was measured:
# human GLP-1 receptor = human GLP-1 receptor (human, UniProt P43220 24-463); test: cell-based or functional assay
# human glucagon receptor = human glucagon receptor (human, UniProt P47871 26-477); test: cell-based or functional assay
# human glucagon receptor, sequence (P47871 26-477): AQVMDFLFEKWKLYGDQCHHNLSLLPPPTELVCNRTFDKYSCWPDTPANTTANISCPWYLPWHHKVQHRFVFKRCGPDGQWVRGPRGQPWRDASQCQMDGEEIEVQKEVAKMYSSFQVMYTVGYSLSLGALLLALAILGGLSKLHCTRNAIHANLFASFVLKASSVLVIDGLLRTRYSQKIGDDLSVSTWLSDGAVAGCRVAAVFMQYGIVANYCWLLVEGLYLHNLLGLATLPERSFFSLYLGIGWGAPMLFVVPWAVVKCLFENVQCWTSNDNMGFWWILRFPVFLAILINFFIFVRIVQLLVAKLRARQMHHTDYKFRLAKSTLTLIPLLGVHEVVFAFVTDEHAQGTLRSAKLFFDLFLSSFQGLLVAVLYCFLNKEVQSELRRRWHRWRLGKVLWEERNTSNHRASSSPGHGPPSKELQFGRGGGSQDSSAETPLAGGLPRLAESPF
binder,measurement,setting,value
HSQGTFTSDLSKQMDSRRAQDFIEWLKNGGPSSGAPPPS-Cysteamide [SEQ ID NO: (8)],EC50 hGLP-1R (cAMP formation),human GLP-1 receptor,20.3 pM
same,EC50 hGlucagonR (cAMP formation),human glucagon receptor,35.1 pM
H[dS]QGTFTSDLSKQFDSRRAQDFIEWLKNGGPSSGAPPPS-NH2 (N-terminus assumed; SMILES CC[C@H](C)[C@H](NC(=O)[C@H](Cc1ccccc1)NC(=O)[C@H](CC(=O)O)NC(=O)[C@H](CCC(N)=O)NC(=O)[C@H](C)NC(=O)[C@H](CCCNC(=N)N)NC(=O)[C@H](CCCNC(=N)N)NC(=O)[C@H](CO)NC(=O)[C@H](CC(=O)O)NC(=O)[C@H](Cc1ccccc1)NC(=O)[C@H](CCC(N)=O)NC(=O)[C@H](CCCCN)NC(=O)[C@H](CO)NC(=O)[C@H](CC(C)C)NC(=O)[C@H](CC(=O)O)NC(=O)[C@H](CO)NC(=O)[C@@H](NC(=O)[C@H](Cc1ccccc1)NC(=O)[C@@H](NC(=O)CNC(=O)[C@H](CCC(N)=O)NC(=O)[C@@H](CO)NC(=O)[C@@H](N)Cc1c[nH]cn1)[C@@H](C)O)[C@@H](C)O)C(=O)N[C@@H](CCC(=O)O)C(=O)N[C@@H](Cc1c[nH]c2ccccc12)C(=O)N[C@@H](CC(C)C)C(=O)N[C@@H](CCCCN)C(=O)N[C@@H](CC(N)=O)C(=O)NCC(=O)NCC(=O)N1CCC[C@H]1C(=O)N[C@@H](CO)C(=O)N[C@@H](CO)C(=O)NCC(=O)N[C@@H](C)C(=O)N1CCC[C@H]1C(=O)N1CCC[C@H]1C(=O)N1CCC[C@H]1C(=O)N[C@@H](CO)C(N)=O) [SEQ ID NO: (43)],EC50 hGLP-1R (cAMP formation),human GLP-1 receptor,300 pM
same,EC50 hGlucagonR (cAMP formation),human glucagon receptor,148 pM
H[dS]QGTFTSDLSKQMDSRRAQLFIEWLKNGGPSSGAPPPS-NH2 (N-terminus assumed; SMILES CC[C@H](C)[C@H](NC(=O)[C@H](Cc1ccccc1)NC(=O)[C@H](CC(C)C)NC(=O)[C@H](CCC(N)=O)NC(=O)[C@H](C)NC(=O)[C@H](CCCNC(=N)N)NC(=O)[C@H](CCCNC(=N)N)NC(=O)[C@H](CO)NC(=O)[C@H](CC(=O)O)NC(=O)[C@H](CCSC)NC(=O)[C@H](CCC(N)=O)NC(=O)[C@H](CCCCN)NC(=O)[C@H](CO)NC(=O)[C@H](CC(C)C)NC(=O)[C@H](CC(=O)O)NC(=O)[C@H](CO)NC(=O)[C@@H](NC(=O)[C@H](Cc1ccccc1)NC(=O)[C@@H](NC(=O)CNC(=O)[C@H](CCC(N)=O)NC(=O)[C@@H](CO)NC(=O)[C@@H](N)Cc1c[nH]cn1)[C@@H](C)O)[C@@H](C)O)C(=O)N[C@@H](CCC(=O)O)C(=O)N[C@@H](Cc1c[nH]c2ccccc12)C(=O)N[C@@H](CC(C)C)C(=O)N[C@@H](CCCCN)C(=O)N[C@@H](CC(N)=O)C(=O)NCC(=O)NCC(=O)N1CCC[C@H]1C(=O)N[C@@H](CO)C(=O)N[C@@H](CO)C(=O)NCC(=O)N[C@@H](C)C(=O)N1CCC[C@H]1C(=O)N1CCC[C@H]1C(=O)N1CCC[C@H]1C(=O)N[C@@H](CO)C(N)=O) [SEQ ID NO: (35)],EC50 hGLP-1R (cAMP formation),human GLP-1 receptor,89.4 pM
same,EC50 hGlucagonR (cAMP formation),human glucagon receptor,43 pM
H[dS]QGTFTSDLSKQMDSRRAQDFIEWLKKGGPSSGEPPPS-NH2 (N-terminus assumed; SMILES CC[C@H](C)[C@H](NC(=O)[C@H](Cc1ccccc1)NC(=O)[C@H](CC(=O)O)NC(=O)[C@H](CCC(N)=O)NC(=O)[C@H](C)NC(=O)[C@H](CCCNC(=N)N)NC(=O)[C@H](CCCNC(=N)N)NC(=O)[C@H](CO)NC(=O)[C@H](CC(=O)O)NC(=O)[C@H](CCSC)NC(=O)[C@H](CCC(N)=O)NC(=O)[C@H](CCCCN)NC(=O)[C@H](CO)NC(=O)[C@H](CC(C)C)NC(=O)[C@H](CC(=O)O)NC(=O)[C@H](CO)NC(=O)[C@@H](NC(=O)[C@H](Cc1ccccc1)NC(=O)[C@@H](NC(=O)CNC(=O)[C@H](CCC(N)=O)NC(=O)[C@@H](CO)NC(=O)[C@@H](N)Cc1c[nH]cn1)[C@@H](C)O)[C@@H](C)O)C(=O)N[C@@H](CCC(=O)O)C(=O)N[C@@H](Cc1c[nH]c2ccccc12)C(=O)N[C@@H](CC(C)C)C(=O)N[C@@H](CCCCN)C(=O)N[C@@H](CCCCN)C(=O)NCC(=O)NCC(=O)N1CCC[C@H]1C(=O)N[C@@H](CO)C(=O)N[C@@H](CO)C(=O)NCC(=O)N[C@@H](CCC(=O)O)C(=O)N1CCC[C@H]1C(=O)N1CCC[C@H]1C(=O)N1CCC[C@H]1C(=O)N[C@@H](CO)C(N)=O) [SEQ ID NO: (33)],EC50 hGLP-1R (cAMP formation),human GLP-1 receptor,138 pM
same,EC50 hGlucagonR (cAMP formation),human glucagon receptor,347 pM
H[dA]QGTFTSDLSKQMDSRRAQDFIEWLKNGGPSSGAPPPS-NH2 [SEQ ID NO: (40)],EC50 hGLP-1R (cAMP formation),human GLP-1 receptor,8.1 pM
same,EC50 hGlucagonR (cAMP formation),human glucagon receptor,1180 pM
H[dS]QGTFTSDLSKQMDSRRAQEFIEWLKNGGPSSGAPPPS-NH2 (N-terminus assumed; SMILES CC[C@H](C)[C@H](NC(=O)[C@H](Cc1ccccc1)NC(=O)[C@H](CCC(=O)O)NC(=O)[C@H](CCC(N)=O)NC(=O)[C@H](C)NC(=O)[C@H](CCCNC(=N)N)NC(=O)[C@H](CCCNC(=N)N)NC(=O)[C@H](CO)NC(=O)[C@H](CC(=O)O)NC(=O)[C@H](CCSC)NC(=O)[C@H](CCC(N)=O)NC(=O)[C@H](CCCCN)NC(=O)[C@H](CO)NC(=O)[C@H](CC(C)C)NC(=O)[C@H](CC(=O)O)NC(=O)[C@H](CO)NC(=O)[C@@H](NC(=O)[C@H](Cc1ccccc1)NC(=O)[C@@H](NC(=O)CNC(=O)[C@H](CCC(N)=O)NC(=O)[C@@H](CO)NC(=O)[C@@H](N)Cc1c[nH]cn1)[C@@H](C)O)[C@@H](C)O)C(=O)N[C@@H](CCC(=O)O)C(=O)N[C@@H](Cc1c[nH]c2ccccc12)C(=O)N[C@@H](CC(C)C)C(=O)N[C@@H](CCCCN)C(=O)N[C@@H](CC(N)=O)C(=O)NCC(=O)NCC(=O)N1CCC[C@H]1C(=O)N[C@@H](CO)C(=O)N[C@@H](CO)C(=O)NCC(=O)N[C@@H](C)C(=O)N1CCC[C@H]1C(=O)N1CCC[C@H]1C(=O)N1CCC[C@H]1C(=O)N[C@@H](CO)C(N)=O) [SEQ ID NO: (37)],EC50 hGLP-1R (cAMP formation),human GLP-1 receptor,75.9 pM
same,EC50 hGlucagonR (cAMP formation),human glucagon receptor,58.2 pM
H[dS]QGTFTSDLSKQMDSRRARDFIEWLKNGGPSSGAPPPS-NH2 (N-terminus assumed; SMILES CC[C@H](C)[C@H](NC(=O)[C@H](Cc1ccccc1)NC(=O)[C@H](CC(=O)O)NC(=O)[C@H](CCCNC(=N)N)NC(=O)[C@H](C)NC(=O)[C@H](CCCNC(=N)N)NC(=O)[C@H](CCCNC(=N)N)NC(=O)[C@H](CO)NC(=O)[C@H](CC(=O)O)NC(=O)[C@H](CCSC)NC(=O)[C@H](CCC(N)=O)NC(=O)[C@H](CCCCN)NC(=O)[C@H](CO)NC(=O)[C@H](CC(C)C)NC(=O)[C@H](CC(=O)O)NC(=O)[C@H](CO)NC(=O)[C@@H](NC(=O)[C@H](Cc1ccccc1)NC(=O)[C@@H](NC(=O)CNC(=O)[C@H](CCC(N)=O)NC(=O)[C@@H](CO)NC(=O)[C@@H](N)Cc1c[nH]cn1)[C@@H](C)O)[C@@H](C)O)C(=O)N[C@@H](CCC(=O)O)C(=O)N[C@@H](Cc1c[nH]c2ccccc12)C(=O)N[C@@H](CC(C)C)C(=O)N[C@@H](CCCCN)C(=O)N[C@@H](CC(N)=O)C(=O)NCC(=O)NCC(=O)N1CCC[C@H]1C(=O)N[C@@H](CO)C(=O)N[C@@H](CO)C(=O)NCC(=O)N[C@@H](C)C(=O)N1CCC[C@H]1C(=O)N1CCC[C@H]1C(=O)N1CCC[C@H]1C(=O)N[C@@H](CO)C(N)=O) [SEQ ID NO: (31)],EC50 hGLP-1R (cAMP formation),human GLP-1 receptor,10.9 pM
same,EC50 hGlucagonR (cAMP formation),human glucagon receptor,132 pM
HSQGTFTSDLSKQMDSRRAQDFIEWLKNGGPSSGAPPPS-{NH‑CH2‑CH2‑S‑tBu} [SEQ ID NO: (36)],EC50 hGLP-1R (cAMP formation),human GLP-1 receptor,18.9 pM
same,EC50 hGlucagonR (cAMP formation),human glucagon receptor,45.8 pM
HAQGTFTSDLSKQMDSRRAQDFIEWLKNGGPSSGAPPPS-NH2 [SEQ ID NO: (39)],EC50 hGLP-1R (cAMP formation),human GLP-1 receptor,4.6 pM
same,EC50 hGlucagonR (cAMP formation),human glucagon receptor,683 pM
HGQGTFTSDLSKQMDSRRAQDFIEWLKNGGPSSGAPPPS-NH2 [SEQ ID NO: (11)],EC50 hGLP-1R (cAMP formation),human GLP-1 receptor,25.4 pM
same,EC50 hGlucagonR (cAMP formation),human glucagon receptor,2320 pM
HSQGTFTSDLSKQMDSRRAQDFIEWLKNGGPSSGAPPPS-{NH‑(CH2)5‑OH} [SEQ ID NO: (50)],EC50 hGLP-1R (cAMP formation),human GLP-1 receptor,14 pM
same,EC50 hGlucagonR (cAMP formation),human glucagon receptor,22.5 pM

# From US20130336893A1 (Sanofi, published 2013)
